{
  "source": "patent WO2012175740A1",
  "target": "cyno IgE c(epsilon)2-c(epsilon)3-c(epsilon)4 Fc fragment with C-terminal (His)10 tag (cynomolgus monkey)",
  "sequence (chain, as listed by the source)": "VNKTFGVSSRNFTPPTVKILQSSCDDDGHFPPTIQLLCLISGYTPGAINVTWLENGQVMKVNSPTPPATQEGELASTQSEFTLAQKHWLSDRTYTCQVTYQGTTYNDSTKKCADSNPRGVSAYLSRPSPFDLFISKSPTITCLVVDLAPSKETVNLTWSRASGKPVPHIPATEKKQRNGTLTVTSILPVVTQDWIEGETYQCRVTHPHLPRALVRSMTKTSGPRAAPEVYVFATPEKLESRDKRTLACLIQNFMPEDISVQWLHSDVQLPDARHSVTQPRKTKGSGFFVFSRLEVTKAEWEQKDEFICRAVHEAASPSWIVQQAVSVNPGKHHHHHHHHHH",
  "assay": "Alphascreen, competition with HuFc(epsilon)RI(alpha)Fc for cyno IgE Fc",
  "data": [
    {"binder": "Nanobody 39B2 (VHH, not shown: small tags and cut ends) VHH: EVQLVESGGGLVQPGGSLRLSCAASGFTFGSYDMSWVRQAPGKGPEWVSAINSGGGSTYYADSVKGRFTISRDNAKNTLYLQMNSLKPEDTAVYYCSTDLGPWIEGTMEEYEYEYWGQGTQVTVSS", "values": [
      {"measurement": "% inhibition at 250 nM Nanobody", "result": 38, "unit": "%"}
    ]}
  ]
}
